Target: the molecule itself
Experiment: crystal structure

B1: Shethna Protein II (FeSII) from Azotobacter vinelandii (natural protein, UniProt Q44501 1-122, looked up)
chain: MATIYFSSPLMPHNKKVQAVAGKRSTLLGVAQENGVKIPFECQDGNCGSCLVKITHLDGERIKGMLLTDKERNVLKSVGKLPKSEEERAAVRDLPPTYRLACQTIVTDEDLLVEFTGEPGGA
binding result: binds

Reference: article doi:10.1101/2024.01.30.575082 (bioRxiv, 2024)
